Assay results as given in the supplement of paper PMC9170038.

System: K4 kissing-loop RNA reporter
Experiment: apparent KD of K4 kissing-loop reporter; higher = weaker reporter binding
Details: Eterna round: R107
Protocol: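 RNA-MaP round R107: designed RNA switches with theophylline, tryptophan, arginine or FMN aptamers are transcribed on-chip within common flanks. They are titrated with a labelled K4 kissing-loop RNA reporter in RNA-MaP buffer (100 mM Tris pH 7.5, 80 mM KCl, 4 mM MgCl2), without ligand or with the indicated ligand. Median apparent KD per design.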

[1] = input ligand: theophylline 20 uM
[2] = input ligand: tryptophan 2.4 mM
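Further: bound reporter read as fluorescence of individual clusters on recovered sequencing chips by microscopy, with normalized cluster intensities fitted with a binding model.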

| Sequence | apparent KD of K4 kissing-loop reporter (input ligand: FMN 200 uM) [nM] | apparent KD of K4 kissing-loop reporter (input ligand: arginine 13.2 mM) [nM] | apparent KD of K4 kissing-loop reporter (input ligand: none) [nM] | apparent KD of K4 kissing-loop reporter [1] [nM] | apparent KD of K4 kissing-loop reporter [2] [nM] |
| --- | --- | --- | --- | --- | --- |
| GCAUAGCAGACGUUGAGUGGGAGCCAGGCACGAGGACCGGUACGGCCGCCACUCGACUAGGUUUUCAGUGAUGUUGAAAAUUUAG [Exclusion Tryptophan A GF4] | 151 | 141 | 142 | 140 | 156 |
| AAUAGAUCAUUAUAGUGAUAAAUGCCUGAUACCAGUGAGAGAUGGCACCCUUGGCAGCAGAGAUGAGUGAUGUUCAGACUGUAAA [theeternabot_sameState_KL_Theo_A_11] | 114 | 118 | 104 | 123 | 91 |
| GGAUAGGACAGAGGAUAUCCAGUGAUGUUGGAGAAUUCUCCUUCAUCAUGUCACAAAAGUGGCAUGGGAGAAGGCUGUCCUAUCG [Mod of Eli's FmnBX 29 v3] | 146 | 579 | 576 | 899 | 578 |
| UGGCGGCAAGGGUUAUUGGAAAGUAUUCGACGAGGACCGGUACGGCCGCCACUCGAACACCAGUGAUGUUGGUCUGGCUUAAGCC [Exclusion Tryptophan A GF 21] | 276 | 245 | 285 | 275 | 279 |
| GCCGUACGCAUGGAUACCAGCUAUUAGAGUGAUGUUCUAUGGCCCUGCCAGAGUAGCUGUAGCCCUUGGCAGCCAUGCGUACGGC | 148 | 119 | 130 | 144 | 140 |
| GGACAAGUUUCCGAUACCAGCCUUUAUGCUGGACUAGCUUGAUCAGUGGCUAGUGAUGUUGGCCCUUGGCAGCGGGACUCUUCGG [theeternabot_exclusion_KL_Theo_B_10] | 221 | 204 | 217 | 238 | 218 |
| GUAGGCUACCGAGGAUAUAGUCCAACGGAGUGAUGUUCCGUCUUUCUUCAUCAUUAACGUUGUGAUCUAGAAGGCGGUAGCCUAC | 120 | 440 | 723 | 529 | 687 |
| UAGCAUUUGCUCGAGUGAUGUUCGAGCGAAGGAGCGCGAGAAAUCGCAGGUAGGUCGCGCUCGAACUAUGAGCGAUCAUUUAUUA [Arg A Ex t2c] | 284 | 217 | 244 | 463 | 370 |
| CGUUUAUAGCAGGAUACCAGUGCGGAUAAGGUGCGUUAAUAGUAGAGUGAUGUUCUAAAGUACCCUUGGCAGCUUAGAGUGAGUG [#21 K4 Theophylline B Exclusion] | 202 | 144 | 145 | 273 | 108 |
| AAUUAAUACAGAAGGAGCGUGAAAUUAUCUAUUUUUUUUUUAGCUAGUGAUGUUAGCAUUUCACAGGUAGGUCGCUGUAUAUUUA [JR_SSArginiB_Sub009] | 148 | 142 | 166 | 149 | 138 |
| CGCGUGGGUUUGAGAGGGUUUGUGCGAAGUGAGGAUAUUUAGGGAGAAAGAAGGCACUAUAAAAUAUAGUGAUGUUAUAUAAGGG [SSFMNA.K] | 295 | 226 | 275 | 225 | 227 |
| AACUGGGUUCGUGAUACCAGCUCACACAUGAGUGAUGUUCAUGUAGUGGGCAAAAUGUGGAGCCCUUGGCAGCACUGUGACCACG [XTheo-B2] | 81.1 | 69 | 77 | 73.3 | 78.5 |
| AUAUUUAUUUAGUCACUUUUCAUAUUAUGUCAGGAUAUCGUAUUUUCGAGAAGGGACUCAUGCUAGUGAUGUUAGCUAUUUCUCA [JR_Nu3_ExcFMNA_Sub022] | 104 | 170 | 141 | 162 | 111 |
| AUUUAUUACAGAAGGAGCGUGUAUUUAUAAUCAUUUAUCUUAGCGAGUGAUGUUCGCUUUACACAGGUAGGUCGCUGUUUAUUUA [JR_Nu_ExcArginiB_Sub027] | 110 | 128 | 120 | 133 | 90.2 |
| AAUUUAUAUUUAUUCUUUAAAUGUUCAGAAGGAGCGUGAAUUAUCACAGGUAGGUCGCUGGGCUAGUGAUGUUGGCUAUAUACUA [whbob_Ex_Arginine_A_2t125] | 150 | 186 | 162 | 196 | 124 |
| GCCGUACGCAUGGAUACCAGUCUUUCACGACUGGGCAUGGAGUGAUGUUUCGUGAUGCUAGACCCUUGGCAGCCAUGCGUACGGC | 201 | 163 | 175 | 184 | 175 |
| AUUUUUAACUGAGGAUAUCGAAUUUAUGUAGUGAUGUUACUUUAAAUUAAAAUUUUAAUUUCUUAACGAGAAGGCAGAAUAAUUA [JR_SSFMNB_Sub025] | 111 | 194 | 109 | 204 | 85.4 |
| UACAAACGUAGUGAUGUUACGUACUCUGAUACCAGACAAGUGUAAGUCCCUUGGCAGCAGUCAUUUUGCUUAUUAUUUUCUCAAA [JR_ExcTheophyA_Sub019] | 70.1 | 88.1 | 74.1 | 86.4 | 68.1 |
| CGUGCCCGGCCGGAUACCAGUGACCCGCUGGGAACCGCGGGCCCAGAGUGAUGUUCGGGACACCCUUGGCAGCCGCCUGGGCUGC [#2 Same State - Theophylline B Attempt #14 (HarryS)] | 540 | 395 | 757 | 375 | 415 |
| GGCGGCCGCGCGUAAGCGCGGCCGGCCGAUACCAGCGCGACGGCGCGCCCUUGGCAGCGGCGCCGAGUGAUGUUCGGCCUGCCGG [#2 Same State - Theophylline A Attempt #17 (HarryS)] | 376 | 381 | 441 | 465 | 596 |
| UGAGUUAGACAAAAGUCUAGCUCUGGUGAAGGAGCGUCCGAAAGGACAGGUAGGUCGCACCACCUGAGUGAUGUUCAGAAUCCUU [KL-SSArg-A22] | 670 | 506 | 789 | 762 | 468 |
| ACGUCUCGUUAAAUCGUGGUUUCGAUCGAUACCAGUAGCGAGAGUUACCCUUGGCAGCGAAAUGAGUGAUGUUCAUGAAAGAAGA [KL-XTheoA9] | 65.2 | 109 | 69.4 | 130 | 57.3 |

| Sequence | apparent KD of K4 kissing-loop reporter (input ligand: FMN 200 uM) [nM] | apparent KD of K4 kissing-loop reporter (input ligand: arginine 13.2 mM) [nM] | apparent KD of K4 kissing-loop reporter (input ligand: none) [nM] | apparent KD of K4 kissing-loop reporter [1] [nM] | apparent KD of K4 kissing-loop reporter [2] [nM] |
| --- | --- | --- | --- | --- | --- |
| AAGUGUGUGGCGGCCGCCACUAGAAUCCAGUGAUGUUGGAGUUAUCAAAUAAAUGAUAAUCAACAUAGGACCGGGCCAUAUAGAA [Same State - Tryptophan B (Freestyle 4)] | 690 | 430 | 626 | 523 | 469 |
| UGACAUUGCUCAGAUACCAGUCAUGAGGAUCACCCAUGGGCCAAAACGUACUAAAUAAAUGACCCUUGGCAGCUGAGCAAUGUCU [TheoBX 13] | 116 | 36.9 | 37.7 | 165 | 72 |
| UUGCAUGCUAGGGAAACCUAGCAUGCAUGCCGAGGACCGGUACGGCCGCCACUCGAACGAGUGAUGUUCGUUGACCAAAAUAAAA | 227 | 468 | 337 | 635 | 282 |
| UGACUGGAUUGAAGGAGCGCUAAACUCCUAGUGAUGUUAGGGACACAAGACAAAGUCUUGAGGCAGGUAGGUCGCAAUCUAGUCU [FiskerMod 5 - Jieux - Same State - Arginine B] | 345 | 253 | 288 | 310 | 265 |
| AUCAUAUCUAGUCAGCCCAGUGAUGUUGGGCGAGGACCGGUACGGCCGCCACUCGCUUCGUUGCGGUGGCUGGCGUUACGACAAA [Inveusma] | 130 | 142 | 150 | 142 | 137 |
| AAACAUCACUGGGAGUGAUGUUCUCAGUGACGAGGACCGGUACGGCCGCCACUCGCGAGAGAACUAGUCUAGUCUUGACUGCAUU [Excl Tryptophan A V14] | 277 | 333 | 335 | 418 | 398 |
| ACCUGUAGCAGAAGGAGCGACAGUUAUUCUGAUAGAACUCUGAGUGAUGUUCAGAACAACUGUCAGGUAGGUCGCUGAUACAGGU [Arg B Ex t8a] | 577 | 370 | 560 | 512 | 583 |
| GCCGCCGCGGCAGGAUAUAGGUUCAUGGAGUGAUGUUCCAUAACCCGAGUGAUGUUCGUUAUCCGCCUAGAAGGGCCGCGGCGGC | 201 | 166 | 205 | 177 | 169 |
| UGGACGAUAUACGAUAAGUAUAUCUGGGAUACCAGUGACGAAAGUCACCCUUGGCAGCUCAACUGCCAGUGAUGUUGGUAGUCCA [#17 K4 Theophylline A Same State] | 192 | 153 | 135 | 182 | 126 |
| UUUCGGUUCUGAGGAUAUUCGGACAAAUAUAGUGAUGUUGUAUAAGGAGGAGGGUGUUGGCAGUGAGGAGAAGGCAGAAGAGGAU [ExFMNB.T] | 1000 | 677 | 946 | 524 | 622 |
| AUUUUUUACAGAAGGAGCGUGUUUUUAUAAUCAUUUAUCUUAGCGAGUGAUGUUCGCUUUACACAGGUAGGUCGCUGUUUAUUUA [JR_Nu_ExcArginiB_Sub028] | 119 | 130 | 121 | 121 | 85.7 |
| GCAGUGAUGUUGCGCAGGUACAGUGGAGUGCGAGGACCGGUACGGCCGCCACUCGUACAGAACUAGCUAAUAUAUGGAUAGGUGA [VIII] | 287 | 358 | 315 | 347 | 280 |
| GGUAGCUAGGUAGGAUAUAGCUAGUGGAGUGAUGUUCCACGAUACACGAGUGAUGUUCGUACCCUGCUAGAAGGGCCUAGCUACC | 114 | 159 | 168 | 172 | 161 |
| AAGCAGUCACGCGAAGCCAUCGAAGAUGGUCGAGGACCGGUACGGCCGCCACUCGGAGUGAUGUUCCGAAGACUGCAAAAUAAAA | 326 | 270 | 333 | 314 | 341 |
| UUUGUAUCGGGAAGGAGCGUGAAUGAUAAUGAAUAUAGUGAUGUUAUAUAUAAGAACGAAUCACAGGUAGGUCGCCCGGAUGAGU [SSArgB.N] | 548 | 387 | 486 | 548 | 460 |
| CUAGGCAACACAGGAUAUGUCCGAGUGAUGUUCGAGCCUUUCCAUUGACGAAAUUAAUGGUGGGUGACAGAAGGGUGAGUGCUGA [Xezaqu] | 354 | 577 | 620 | 585 | 432 |
| AAGCAGUCACUCGAAUCCAUCGAAGAUGGACGAGGACCGGUACGGCCGCCACUCGGAGUGAUGUUCCGAAGACUGCAAAAUAAAA | 306 | 246 | 342 | 345 | 482 |
| GCCGUAGAUGGAAGGAGCGUGCGUGAAGUGAUGUUUCACGAAGAGUUUUCCACCUUAUAUGCACAGGUAGGUCGCCAUCUACGGC | 114 | 99 | 100 | 105 | 95.2 |
| CUCGAGUGAUGUUCGUUUAUUUAUACAGAUACCAGUGAAUUUUAACACCCUUGGCAGCUGGUUGUAUCUUUGUUUUUUACACAAG [JR_Nu_ExcTheophyA_Sub024] | 191 | 297 | 211 | 338 | 154 |
| AACGCUGUGAAUAACACAGCGAAUAAUUCGCGAGGACCGGUACGGCCGCCACUCGCUAACUGCGAGUGAUGUUCGAUAAUAAAAU [Mat - Mod of OpenEnded 3 - D12] | 148 | 116 | 177 | 237 | 113 |
| GCCUAGUGAUGUUGGGUAAUUUAAACCGGGCGAGGACCGGUACGGCCGCCACUCGGAAACACAACAAAAUUUAAUUUAAUUUAAA [Exclusion - Trytophan A] | 176 | 138 | 174 | 204 | 152 |
| GGCCCGGGCGCGGCCGCCACUCCCUCGUACCGAAAGGUAUGAUACCGAGUGAUGUUCGGUUGGAGGAGGACCGGGCGCCCGGGCC [#2 Exclusion - Tryptophan B Attempt #4 (HarryS)] | 140 | 129 | 105 | 80.7 | 152 |
